# Reference: article PMC11924222, “Integrated Study of Fluorescence Enhancement in the Y176H Variant of Cyanobacterial Phytochrome Cph1” (Biochemistry, 2025)
# Key:
# His260 = His260 (UniProt position 260, SAYHCHLTYLK); test: not stated for the pKa value; the article cites resonance Raman, MAS NMR and absorption studies; settings: Pr (dark-adapted) state, PCB-bound holoprotein; cited from earlier work
# [1] = biological target: the molecule itself; test: crystal structure; X-ray, 3.7 Å; crystals grown in 0.3 M ammonium formate, 0.1 M HEPES pH 6.9, 18% Sokalan CP7; four protomers in the asymmetric unit
Molecule,pKa (His260),binding result [1]
"Phytochrome-like protein Cph1 (cyanobacterial phytochrome 1), photosensory module, wild type (Synechocystis sp. PCC 6803)",7.5,–
"Cph1 Y176H variant of the Cph1 photosensory module (residues 1-514; NTS, nPAS, GAF and PHY domains), crystallization construct with N141R (domain or fragment, Synechocystis 6803, UniProt Q55168 1-514, looked up, phycocyanobilin (PCB) chromophore covalently attached to Cys259, Cyanobacterial phytochrome Cph1 from Synechocystis 6803, photosensor residues 1-514 (NTS, nPAS, GAF and PHY domains), with Y176H and, for crystallization, N141R; PDB 2VEA is the wild-type parent; not shown: His6, N-terminal, cleaved) MATTVQLSDQSLRQLETLAIHTAHLIQPHGLVVVLQEPDLTISQISANCTGILGRSPEDLLGRTLGEVFDSFQIDPIQSRLTAGQISSLNPSKLWARVMGDDFVIFDGVFHRNSDGLLVCELEPAYTSDNLPFLGFYHMARAALNRLRQQANLRDFYDVIVEEVRRMTGFDRVMLHRFDENNHGDVIAEDKRDDMEPYLGLHYPESDIPQPARRLFIHNPIRVIPDVYGVAVPLTPAVNPSTNRAVDLTESILRSAYHCHLTYLKNMGVGASLTISLIKDGHLWGLIACHHQTPKVIPFELRKACEFFGRVVFSNISAQEDTETFDYRVQLAEHEAVLLDKMTTAADFVEGLTNHPDRLLGLTGSQGAAICFGEKLILVGETPDEKAVQYLLQWLENREVQDVFFTSSLSQIYPDAVNFKSVASGLLAIPIARHNFLLWFRPEVLQTVNWGGDPNHAYEATQEDGKIELHPRQSFDLWKEIVRLQSLPWQSVEIQSALALKKAIVNLILRQAEE",–,binds
